Source: the supplement of paper PMC7877785
± gives the uncertainty stated by the source.

Test: self-splicing fitness, log relative to wild type (ln ratio); higher = more splicing; Tetrahymena group I intron in knt gene, E. coli kanamycin selection, DiMSum; sequences stand for … in CUCUCU…GGAGGGAAAAGUUAUCAGGCAUGCACCUGGUAGCUAGUCUUUAAACCAAUAGAUUGCAUCGGUUUAAAAGGCAAGACCGUCAAAUUGCGGGAAAGGGGUCAACAGCCGUUCAGUACCAAGUCUCAGGGGAAACUUUGAGAUGGCCUUGCAAAGGGUAUGGUAAUAAGCUGACGGACAUGGUCCUAACCACGCAGCCAAGUCCUAAGUCAACAGAUCUUCUGUUGAUAUGGAUGCAGUUCACAGACUAAAUGUCGGUCGGGGAAGAUGUAUUCUUCUCAUAAGAUAUAGUCGGACCUCUCCUUAAUGGGAGCUAGCGGAUGAAGUGAUGCAACACUGGAGCCGCUGGGAACUAAUUUGUAUGCGAAAGUAUAUUGAUUAGUUUUGGAGUACUCGUGGUCG
Method in brief: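 Library with all eight P1ex-region intron nucleotides randomised, intron inside the knt kanamycin-resistance gene on pET-22b(+), in E. coli BL21(DE3). Cells grew overnight at 37°C or 30°C on LB agar with or without 25 μg/mL kanamycin (plus 100 μg/mL carbenicillin, 50 μM IPTG, 0.2% rhamnose), in six replicate transformations. Pooled colonies were amplicon-sequenced on Illumina HiSeq 2500. DiMSum fitness is the error-weighted combination of wild-type-normalised replicate fold changes, kanamycin versus none.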

Row | Sequence | self-splicing fitness (ln) (30 °C) | self-splicing fitness (ln) (37 °C)
1 | ACUGAGCAAUAUUACGGUCG | -3.49 ± 0.16 | -1.46 ± 0.16
2 | ACUGAGCAAUAUUACGGUGA | -2.02 ± 0.13 | -3.65 ± 0.24
3 | ACUGAGCAAUAUUACGUACA | -1.96 ± 0.24 | -0.524 ± 0.17
4 | ACUGAGCAAUAUUACGUCCU | -2.07 ± 0.11 | -0.865 ± 0.12
5 | ACUGAGCAAUAUUACGUCGC | -3.35 ± 0.26 | -2.18 ± 0.21
6 | ACUGAGCAAUAUUACGUGAC | -3.23 ± 0.2 | -2.95 ± 0.27
7 | ACUGAGCAAUAUUACGUUAG | -3.64 ± 0.2 | -0.75 ± 0.19
8 | ACUGAGCAAUAUUACGUUGC | – | -2.04 ± 0.28
9 | ACUUAGCAAUAUUACGAACC | -0.695 ± 0.21 | -0.285 ± 0.36
10 | ACUUAGCAAUAUUACGAACG | -1.16 ± 0.089 | -0.581 ± 0.1
11 | ACUUAGCAAUAUUACGAACU | -0.706 ± 0.12 | -0.193 ± 0.14
12 | ACUUAGCAAUAUUACGAAUU | -2.29 ± 0.1 | -0.888 ± 0.14
13 | ACUUAGCAAUAUUACGAGCG | -1.14 ± 0.096 | 0.122 ± 0.1
14 | ACUUAGCAAUAUUACGAUAC | -3.82 ± 0.42 | -2.28 ± 0.26
15 | ACUUAGCAAUAUUACGAUGC | -1.04 ± 0.091 | -0.644 ± 0.11
16 | ACUUAGCAAUAUUACGAUGU | -1.78 ± 0.08 | -1.36 ± 0.11
17 | ACUUAGCAAUAUUACGAUUC | -2.3 ± 0.098 | -0.823 ± 0.1
18 | ACUUAGCAAUAUUACGCAAC | -2.89 ± 0.19 | -1.72 ± 0.17
19 | ACUUAGCAAUAUUACGCGGG | -3.38 ± 0.27 | -2.75 ± 0.2
20 | ACUUAGCAAUAUUACGCUCC | -1.44 ± 0.22 | 0.041 ± 0.19

Row | Sequence | self-splicing fitness (ln) (30 °C) | self-splicing fitness (ln) (37 °C)
21 | ACUUAGCAAUAUUACGCUUG | -1.7 ± 0.094 | -0.865 ± 0.12
22 | ACUUAGCAAUAUUACGGAUU | -1.18 ± 0.12 | -0.862 ± 0.14
23 | ACUUAGCAAUAUUACGGCAG | -1.6 ± 0.092 | -0.759 ± 0.12
24 | ACUUAGCAAUAUUACGGCGG | -1.06 ± 0.087 | -0.78 ± 0.096
25 | ACUUAGCAAUAUUACGGGAA | -1.99 ± 0.2 | -1.65 ± 0.16
26 | ACUUAGCAAUAUUACGGGCC | -2.42 ± 0.28 | -2.35 ± 0.42
27 | ACUUAGCAAUAUUACGGGCU | -1.74 ± 0.084 | -0.866 ± 0.11
28 | ACUUAGCAAUAUUACGUCAC | -3.8 ± 0.22 | -1.91 ± 0.2
29 | ACUUAGCAAUAUUACGUCCC | -0.637 ± 0.21 | -0.072 ± 0.25
30 | ACUUAGCAAUAUUACGUGAC | -2.05 ± 0.21 | -2.54 ± 0.29
31 | ACUUAGCAAUAUUACGUGCU | -1.9 ± 0.094 | -1.06 ± 0.1
32 | ACUUAGCAAUAUUACGUGUU | -3.22 ± 0.16 | -1.5 ± 0.12
33 | ACUUAGCAAUAUUACGUUUG | -3.01 ± 0.12 | -2.09 ± 0.16
34 | AGAAAGCAAUAUUACGACCC | 0.302 ± 0.21 | -0.444 ± 0.27
35 | AGAAAGCAAUAUUACGACCG | -0.595 ± 0.15 | 0.0491 ± 0.17
36 | AGAAAGCAAUAUUACGAUAU | -1.07 ± 0.096 | -0.792 ± 0.11
37 | AGAAAGCAAUAUUACGCAAA | -3.28 ± 0.26 | -0.836 ± 0.13
38 | AGAAAGCAAUAUUACGCAUC | -2.53 ± 0.34 | –
39 | AGAAAGCAAUAUUACGCCUU | -1.29 ± 0.12 | -1.69 ± 0.14
